This is an account of results in patent US20240376151A1, “STAPLED PEPTIDES AND METHODS THEREOF” (FOG PHARMACEUTICALS, INC., priority 2022, published 2024).

Numbered stars: 1 amine (or outer) side, 2 acyl side, 3 side chain; on linkers, the order of the positions; unused ones are H or OH. Bridge positions count the residues as written; N and C are the ends. Ends that are not written are not given here. Phenylene(1,4-NHCOCH2)2 = O=C(C[*:1])Nc1ccc(NC(=O)C[*:2])cc1; 8‑residue Gly‑rich linker = not defined here

For assay [1], the target named is RNF31 PUB domain protein (residues 1-179), biotinylated (Homo sapiens (Human)) (UniProt Q96EP0). The assay can be described thus: phage display screen on bead-immobilized RNF31 PUB, NGS.
For assay [2], the target named is human PD-L1 (residues 18-239) with C-terminal human IgG Fc-Avi tag (human), Q9NZQ7. The assay can be described thus: SPR. Background: In SPR one partner is held on a chip, and binding of the other changes the refractive index at the surface.
Assay [3] addresses MDM2 p53-binding domain + beta-catenin Armadillo domain (the two proteins bridged in the ternary complex) (human) (UniProt Q00987). The assay is described as follows: direct FP, ternary complex of β-catenin (Armadillo domain) and MDM2 (p53-binding domain).
The target of assay [4] is T1, CUL1 N-terminal domain (residues 15-410, V367R/L371D) (human), Q13616. The assay can be described thus: phage display screen, bead-bound target, spike-in-normalized NGS; target 300 nM.
Assay [5] has as its target T1, CUL1 N-terminal domain (residues …). The assay can be described thus: phage display screen, bead-bound target, spike-in-normalized NGS; target 10 nM.
The target is the same in assay [6]. The assay is described as follows: phage display screen, bead-bound target, spike-in-normalized NGS; target 1000 nM (second column).
Assay [7] has the same target. The assay is described as follows: phage display screen, bead-bound target, spike-in-normalized NGS; target 30 nM.
Assay [8] has the same target. The assay can be described thus: phage display screen, bead-bound target, spike-in-normalized NGS; target 100 nM.
The target is the same in assay [9]. The assay can be described thus: phage display screen, bead-bound target, spike-in-normalized NGS; target 1000 nM.
Assay [10] addresses VHL-ELOBC (human), P40337. The assay is described as follows: phage display screen, NGS; column head 300 nM (row is one cell short of the head, alignment unsure).

RNF31 PUB domain protein (residues 1-179), biotinylated (Homo sapiens (Human)), sequence (Q96EP0 1-179): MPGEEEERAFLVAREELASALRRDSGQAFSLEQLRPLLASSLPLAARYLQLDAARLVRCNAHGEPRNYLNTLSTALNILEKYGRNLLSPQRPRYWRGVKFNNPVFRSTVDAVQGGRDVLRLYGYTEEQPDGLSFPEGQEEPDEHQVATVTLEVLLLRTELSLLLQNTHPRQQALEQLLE
VHL-ELOBC (human), P40337, sequence (P40337 54-213 limits assumed, chain 1 of 3): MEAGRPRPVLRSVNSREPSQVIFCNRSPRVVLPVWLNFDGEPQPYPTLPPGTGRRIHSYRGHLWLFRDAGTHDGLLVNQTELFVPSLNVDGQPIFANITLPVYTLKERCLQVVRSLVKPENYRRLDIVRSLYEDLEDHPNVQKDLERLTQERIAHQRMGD
VHL-ELOBC (human), P40337, sequence (Q15370 1-104 limits assumed, chain 2 of 3, further chain): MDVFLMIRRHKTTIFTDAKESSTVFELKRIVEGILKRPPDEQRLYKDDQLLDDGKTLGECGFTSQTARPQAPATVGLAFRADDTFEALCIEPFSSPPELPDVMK
VHL-ELOBC (human), P40337, sequence (Q15369 17-112 limits assumed, chain 3 of 3, further chain): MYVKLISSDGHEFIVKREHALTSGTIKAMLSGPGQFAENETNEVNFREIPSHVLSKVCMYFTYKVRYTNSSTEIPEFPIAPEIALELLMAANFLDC
human PD-L1 (residues 18-239) with C-terminal human IgG Fc-Avi tag (human), Q9NZQ7, sequence (Q9NZQ7 18-239): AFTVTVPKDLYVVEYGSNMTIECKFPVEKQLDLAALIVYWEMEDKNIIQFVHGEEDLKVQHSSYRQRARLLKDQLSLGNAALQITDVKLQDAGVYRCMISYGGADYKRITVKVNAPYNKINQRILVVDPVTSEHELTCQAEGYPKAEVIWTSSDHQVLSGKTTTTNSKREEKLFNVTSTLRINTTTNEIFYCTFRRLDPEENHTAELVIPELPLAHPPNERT
MDM2 p53-binding domain + beta-catenin Armadillo domain (the two proteins bridged in the ternary complex) (human), sequence (Q00987 17-111, chain 1 of 2): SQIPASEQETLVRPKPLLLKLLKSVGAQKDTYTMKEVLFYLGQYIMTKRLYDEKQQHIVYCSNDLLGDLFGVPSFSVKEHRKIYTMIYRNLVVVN
MDM2 p53-binding domain + beta-catenin Armadillo domain (the two proteins bridged in the ternary complex) (human), sequence (chain, as listed by the source, chain 2 of 2): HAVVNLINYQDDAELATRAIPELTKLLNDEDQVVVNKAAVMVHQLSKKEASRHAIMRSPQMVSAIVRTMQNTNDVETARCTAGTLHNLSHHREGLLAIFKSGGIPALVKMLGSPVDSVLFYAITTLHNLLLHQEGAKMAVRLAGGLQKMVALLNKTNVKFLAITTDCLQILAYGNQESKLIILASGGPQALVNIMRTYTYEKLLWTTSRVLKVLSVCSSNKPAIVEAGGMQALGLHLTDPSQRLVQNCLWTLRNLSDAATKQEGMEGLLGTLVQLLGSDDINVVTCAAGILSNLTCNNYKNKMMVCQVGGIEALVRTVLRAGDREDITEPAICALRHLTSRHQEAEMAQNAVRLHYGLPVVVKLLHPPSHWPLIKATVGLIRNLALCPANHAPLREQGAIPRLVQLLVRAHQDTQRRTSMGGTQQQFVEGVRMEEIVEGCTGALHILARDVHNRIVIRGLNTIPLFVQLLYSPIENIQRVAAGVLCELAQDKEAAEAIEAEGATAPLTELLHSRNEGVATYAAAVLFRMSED

In assay [1], DPADWTCVLAAHNCLYT-{8‑residue Gly‑rich linker-M13 pIII} (peptide, not shown: large carriers, linker 7-14 via Phenylene(1,4-NHCOCH2)2 (inferred); reading uncertain) returned a normalized phage count at Target Concentration 10 (normalized phage counts) of 0, a normalized phage count at Target Concentration 30 (normalized phage counts) of 0, a normalized phage count at Target Concentration 100 (normalized phage counts) of 0 and a normalized phage count at Target Concentration 300 (normalized phage counts) of 1. In assay [1], this molecule yielded a normalized phage count at Target Concentration 1000 (normalized phage counts) of 3 and a normalized phage count at Target Concentration 1000 (second column) (normalized phage counts) of 9.
The molecule DPAAADCQWAAFLCRVY (modifications not checked) [FP30790] returned a dissociation constant Kd in [2] of 10 µM.

B1: H329 (peptide)
peptide: Ac-PMEQQAICFQAAWMCLADDWT-NH2
modifications: bridge 8-15; not fully specified (bridges); printed as Ac-PMEQQAICFQAAWMCLADDWT-NH2
B1: the EC50 in assay [3] came out at 0.014 µM.
DPAVMECDWAATICDIF (modifications not checked) [phage-displayed Helicon …]: the normalized phage count (normalized counts) in [4] amounted to 402; in assay [5], 0; in assay [6], 419; in [7] it was 2; in assay [8] it was 154; in [9], 477.
In assay [1], DPAHILCEMAARNCLYN-{8‑residue Gly‑rich linker-M13 pIII} (peptide, not shown: large carriers, linker 7-14 via Phenylene(1,4-NHCOCH2)2 (inferred); reading uncertain) had a normalized phage count at Target Concentration 10 (normalized phage counts) of 3, a normalized phage count at Target Concentration 30 (normalized phage counts) of 1, a normalized phage count at Target Concentration 100 (normalized phage counts) of 1 and a normalized phage count at Target Concentration 300 (normalized phage counts) of 1. Also, in assay [1], the normalized phage count at Target Concentration 1000 (normalized phage counts) came to 10 and the normalized phage count at Target Concentration 1000 (second column) (normalized phage counts) worked out at 2.
In assay [10], DPAWYACVDAAYFCDYQ (modifications not checked) gave a phage count (normalised phage counts) of 35.
Same read-out and setting: the same measure for DPAWWHCVAAATQCDQR (modifications not checked): 79; for DPAWWHCVDAALQCDYY (modifications not checked): 40.

One may read the Kd as the free concentration of one partner at which half of the binding sites on the other are occupied at equilibrium, for simple one-to-one binding. A low value points to higher affinity. The term EC50 denotes the concentration that produces a half-maximal response.
